Measurements as given in article PMC5902578.

Key:
[1] = biological target: yeast Hsp90 W300A (S. cerevisiae) (UniProt P02829); test: AUC; as a1, with 2 mM AMP–PNP
[2] = biological target: yeast Hsp90 W300E (S. cerevisiae) (UniProt P02829); test: AUC; as a1, with 2 mM AMP–PNP
[3] = biological target: yeast Hsp90 W300A (S. cerevisiae) (UniProt P02829); test: AUC; as a1, with 2 mM ATPγS
[4] = biological target: yeast Hsp90 W300E (S. cerevisiae) (UniProt P02829); test: AUC; as a1, with 2 mM ATPγS

- percent of labelled GR-LBD in complex [1]: < 5%
- percent of labelled GR-LBD in complex [2]: < 5%
- percent of labelled GR-LBD in complex [3]: < 5%
- percent of labelled GR-LBD in complex [4]: < 5%
Substance: human glucocorticoid receptor ligand binding domain (GR-LBD) (domain or fragment)
